Positions count from the first letter of the chain named.
B1: G2(2E07) scFv (scFv, V domains shown)
VH: QVQLVQSGAEVKKPGASVKVSCKASGGTFSSATISWVRQAPGQGLEWMGWIYPNSGGTVYAQKFQGRVTMTRDTSTSTVYMELSSLRSEDTAVYYCAATEWLGVWGQGTTVTVSS
VL: DIQMTQSPSSLSASVGDRVTITCRASQSISTWLAWYQQKPGKAPKLLIYAASSLRSGVPSRFSGSGSGTDFTLTISSLQPEDFATYYCQQSYNTPYTFGQGTKLEIK
B2: G2(2H10) scFv (scFv, V domains shown)
VH: QVQLVQSGAEVKKPGASVKVSCKASGYSFTRYNMHWVRQAPGQGLEWMGWINPNSGGTNYAQKFQGRVTMTRDTSTSTVYMELSSLRSEDTAVYYCARDGYSGLDVWGKGTTVTVSS
VL: B1 VL with T31S, A50G, R55Q, N93S, T94V, T97S
B3: G2(1H10) scFv (scFv, V domains shown)
VH: QVQLVQSGAEVKKPGASVKVSCKASGGTFSSYAISWVRQAPGQGLEWMGWINPNNGGTNYAQKFQGRVTMTRDTSTSTVYMELSSLRSEDTAVYYCARDSGVGMDVWGQGTTVTVSS
VL: B1 VL with T31K, R55Q, N93S, T94A, L104V
B4: G2(2E03) scFv (scFv, V domains shown)
VH: EVQLLQSGAEVKKPGSSVKVSCKASGGTFSSYAISWVRQAPGQGLEWMGWINPNSGGTISAPNFQGRVTMTRDTSTSTVYMELSSLRSEDTAVYYCARANWLDYWGQGTLVTVSS
VL: B1 VL with T31R, S53T, L54V, R55Q, N93S
B5: G2(1C02) scFv (scFv, V domains shown)
VH: QVQLVQSGAEVKKPGASVKVSCKASGYTFTSYGISWVRQAPGQGLEWMGWINPNSGGTNYAQKFQGRVTMTRDTSTSTVYMELSSLRSEDTAVYYCARGWELGYWGQGTLVTVSS
VL: B1 VL with T31N, R55Q, N93S, T94A, Q100P, L104V, E105D
B6: G2(2C06) scFv (scFv, V domains shown)
VH: B5 VH with A24S, T28S, T30D, G33V, I34V, S35N, G99D, E101V, G103D
VL: B1 VL with S28T, T31S, R55Q, N93S, Y96F, Q100P, L104V, E105D
B7: G2(1C09) scFv (scFv, V domains shown)
VH: QVQLVQSGAEVKKPGASVKVSCKASGYTFSSYNMHWVRQAPGQGLEWMGWINGNTGGTNYAQKFQGRVTMTRDTSTSTVYMELSSLRSEDTAVYYCARGVNVDDFDYWGQGTLVTVSS
VL: B1 VL with S28T, T31N, W32Y, A34N, S53N, R55Q, N93S, Y96Q, L104V
B8: G2(2C11) scFv (scFv, V domains shown)
VH: QVQLVQSGAEVKKPGASVKVSCKASGGTFNNYAFSWVRQAPGQGLEWMGWINPNSGGTNYAQKFQGRVTMTRDTSTSTVYMELSSLRSEDTAVYYCARDGVAVASDYWGQGTLVTVSS
VL: B1 VL with S28G, T31N, W32Y, S53T, R55Q, N93S, T94V, T97S
B9: G2(1B10) scFv (scFv, V domains shown)
VH: B5 VH with Q1E, V5L, Q6E, N54Y, F64L, G99A, W100N, E101W, G103D
VL: B1 VL with T31S, S53T, R55Q, N93S, T94S, Q100P, L104V, E105D
B10: G2(1G01) scFv (scFv, V domains shown)
VH: B5 VH with I51M, W100E, E101W, G103D
VL: B1 VL with S28T, T31S, R55Q, N93G, T94V, L104V
B11: G2(1A10) scFv (scFv, V domains shown)
VH: QVQLVQSGAEVKKPGASVKVSCKASGGTFSSYAFSWVRQAPGQGLEWMGWINPDTGYTRYAQKFQGRVTMTRDTSTSTVYMELSSLRSEDTAVYYCARGDYTGNWYFDLWGRGTLVTVSS
VL: DIQMTQSPSSLSASVGDRVTITCRASRDIGRAVGWYQQKPGKAPKLLIYAASSLQSGVPSRFSGSGSGTDFTLTISSLQPEDFATYYCQQLDSYPFTFGPGTKVDIK

Molecular target: T1, HLA-A*01:01_… (HLA-PEPTIDE target G2), recombinant biotinylated complex (human, enzymatically biotinylated (BirA))
T1 construct: also called G2-pHLA
Assay: phage panning, scFv ELISA;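 also: scFv binders from three to four bead panning rounds, tested as PPEs by ELISA on streptavidin plates carrying peptide-HLA complex (2 µg/ml), detected via anti-V5 and HRP anti-mouse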
Description: Phage library screening was carried out according to the overall screening design described above. Three to four rounds of bead-based panning were performed to identify scFv binders to each peptide-HLA complex. For each round of panning, an aliquot of starting phage was set aside for input titering and the remaining phage was depleted three times against Dynabead M-280 streptavidin beads (Life Technologies) followed by a depletion against Streptavidin beads pre-bound with 100 μmoles of pooled negative peptide-HLA complexes. For the first round of panning, 100 μmoles of peptide-HLA complex bound to streptavidin beads was incubated with depleted phage for 2 hours at room temperature with rotation. Three five-minute washes with 0.5% BSA in 1×PBST (PBS+0.05% Tween-20) followed by three five-minute washes with 0.5% BSA in 1×PBS were utilized to remove any unbound phage to the peptide-HLA complex bound beads. To elute the bound phage from the washed beads, 1 ml 0.1M TEA was added and incubated for 10 minutes at room temperature with rotation. The eluted phage was collected from the beads and neutralized with 0.5 ml 1M Tris-HCl pH 7.5. The neutralized phage was then used to infect log growth TG-1 cells (OD₆₀₀=0.5) and after an hour of infection at 37° C., cells were plated onto 2YT media with 100 μg/ml carbenicillin and 2% glucose (2YTCG) agar plates for output titer and bacterial growth for subsequent panning rounds.
96-well and/or 384-well streptavidin coated plates (Pierce) were coated with 2 μg/ml peptide-HLA complex in HLA buffer and incubated overnight at 4° C. Plates were washed three times between each step with PBST (PBS+0.05%). The antigen coated plates were blocked with 3% BSA in PBS (blocking buffer) for 1 hour at room temperature. After washing, scFv PPEs were added to the plates and incubated at room temperature for 1 hour. Following washing, mouse anti-v5 antibody (Invitrogen) in blocking buffer was added to detect scFv and incubated at room temperature for 1 hour. After washing, HRP-goat anti-mouse antibody (Jackson ImmunoResearch) was added and incubated at room temperature for 1 hour.

Binding result, binds:
B1
B2
B3
B4
B5
B6
B7
B8
B9
B10
B11
